How the values were obtained:
KRas protein = target: T1, KRas protein (Homo sapiens, UniProt P01116); assay: ELISA of binding level to the KRas protein in vitro; settings: coated at 1 ng/μL, KRas 6.25-100 μg, compared with the control group
T1 construct: made in house
Description: 100 μL of coating solution was added into each well of 96-well ELISA plate to coat overnight at 4° C. • (3) Blocking: the ELISA plate was cleaned with a phosphate buffer solution (PBS) (PBS formula: 4 g of NaCl, 0.1 g of KCl, 1.815 g of disodium hydrogen phosphate dodecahydrate, and 0.12 g of […], dissolved in 400 mL of ultrapure water, with a constant volume of 500 mL for use) for 5 minutes each time. 300 μL of 5% (w/v) bovine serum albumin was added into each well, and blocked at 37° C. for 2 hours. • (4) Adding of the purified protein KRas: 6.25 μg, 12.5 μg, 25 μg, 50 μg and 100 μg of purified protein were respectively pre-mixed and diluted in 200 μL of PBS, and the diluted KRas protein was added into the wells in sequence, and slowly shaken at the room temperature for 5 hours. […] Main steps of the example were as follows: • (1) Coupling of ligand: the target coupling amount was calculated according to the following formula: […]

[1] = target: T2, wild-type KRas protein in HT29 (KRas wt) cells (Homo sapiens, UniProt P01116); assay: Western blot of KRas degradation in HT29 cells; assay type: cell-based; settings: for degradation of KRas protein, concentration-dependency (western blot): 0-20 μg/ml
T2 construct: host or cells: HT29
Description: • (1) Source and culture of cells: human colorectal cancer cells HT29 (KRas wt) and human colorectal cancer cells HCT116 (KRas G13D) came from American Type Culture Collection (ATCC) (item number: HTB-38, CCL-247). HT29 and HCT116 cells were all cultured in the 1640 culture medium added with 10% fetal bovine serum (FBS), under 5% CO2 at 37° C. • (2) The colorectal cancer cells HCT116 and HT29 were respectively spread in six-well plates, 500,000 cells per well. […] 2,000 μL of DMEM complete culture solution was added into each well and mixed evenly, and the cells were cultured at 37° C. for 24 hours. • (3) The cells were cleaned with PBS twice, and 0.5 mL of 0.25% pancreatin was added into each well to digest the cells and make the cells fall off from the culture dish wall. Then, the digestion was stopped with 1 mL of complete culture solution per well, the cell suspension was collected into a 1.5 mL EP tube, and centrifuged at the room temperature and 300 g for 3 minutes to collect the cells. The cells were resuspended with 1 mL of PBS, and repeatedly centrifuged for one time. • (4) The supernatant was removed, and 100 μL of lysate was added in each group (item number: P0013G; purchased from Beyotime Biotechnology Company). The cells were lysed on ice, vortically vibrated every 5 minutes, and centrifuged at 4° C. and 12,000 pm for 30 minutes after being lysed for 30 minutes, and the supernatant was collected into a new 1.5 mL EP tube. • (5) The protein concentration was measured by the BCA method, and 30 μg of protein was taken from each group for SDS denaturation gel electrophoresis, transferred and blocked with 5% skim milk for 1 hour. Then, KRas (source: Proteintech; item number: 12063-1-AP) and β-tublin (source: Proteintech; item number: 10094-1-AP) primary antibodies were added by a ratio of 1:2,000, and shaken overnight at 4° C. to remove the antibodies. The membrane was washed with TBST for three times, 10 minutes each time. The rabbit secondary antibody labeled with corresponding HRP (source: TransGen Company; item number: HS101-01) was added for dilution with the ratio of 1:3,000 and incubated in shaking at the room temperature for 1 hour, and the membrane was cleaned with TBST for three times, 10 minutes each time. The antibody was luminously developed in the dark room of the ELC luminescent kit. Concentrations of all the primary antibodies were 1:2,000 (1 […] diluted in 2,000 μL of primary antibody diluent).
The protein concentrations were measured by BCA, and 30 μg of protein was taken respectively and stored in a refrigerator at −20° C. for later use. • (3) Western blot experiment was carried out on collected protein samples.

Row | Molecule | interaction with the KRas protein (ELISA, OD450-OD630) (KRas protein) | degradation of KRas, influence of administration time ([1]; 10 and 20 μg/mL, 1, 2, 6, 12, 24 hours, cell line not restated (FIG. 12)) | degradation of KRas protein, concentration-dependency (western blot) ([1]; HT29, 24 hours) | degradation effect on KRas at 10 ug/mL and 20 ug/mL ([1]; HT29, FIG. 11, 24 hours)
1 | TKD: fusion protein: tumour-cell-penetrating peptide BR2, anti-KRas nanobody VHH and lysosome recognition peptide CTM; SEQ ID NO.4 (protein) RAGLQFPVGRLLRRLLRDVQLQESGGGLVQAGGSLRLSCVASGRTFSTYPTGWFRQAPGKEREFVARINLSGGITNYADSVKGRFTISRDNAKNTVYLQMNSLKPEDTAVYYCGGGSTTWAGGIPTNFDYWGQGTQVTVSSGRKFERQKILDQRFFE | had a stronger interaction with the KRas protein | could rapidly degrade KRas, and the degradation was time-dependent within a certain range | could cause degradation of expression levels of the wild-type and mutant-type KRas proteins in the colorectal cancer cells, and the degradation degree was increased with the increase of the concentration | the degradation effect on KRas was obvious
2 | TKDm: control molecule of TKD with mutated CTM fragment (CTMmt) which could not be recognized by a lysosome; SEQ ID NO.5 (protein) RAGLQFPVGRLLRRLLRDVQLQESGGGLVQAGGSLRLSCVASGRTFSTYPTGWFRQAPGKEREFVARINLSGGITNYADSVKGRFTISRDNAKNTVYLQMNSLKPEDTAVYYCGGGSTTWAGGIPTNFDYWGQGTQVTVSSGRKFERAKILDARFFE | had a stronger interaction with the KRas protein |  | could not play a similar role | 
